Target: HopU1 (Pseudomonas syringae, UniProt Q88A91 1-264)
Assay: MST
Conditions: protein: recombinant; tags: C-terminal His6 (pET22b NdeI/XhoI, Ni-NTA; tag position implied by vector)

Row | Binder | Kd
1 | H1 RNA aptamer (structured_RNA) RNA: GCCACCAACGACAUUUUGUCAAUCUGUAGAAAAAAUCAGGGUUGAUAUAAAUAGUGCCCAU | 6.71 ± 0.69 nM
2 | H2 RNA aptamer (structured_RNA) RNA: GCCACCAACGACAUUACGCAUUGCUUCUAAAGGGUGUGCCGUUGAUAUAAAUAGUGCCCAU | 6.41 ± 0.48 nM
